Results on one substance are retold here after US20220072094A1.

The target in this experiment is PLCγ1 (mouse, endogenous, hippocampus) (mouse) (UniProt Q62077). Description: cell-based or functional assay.

For the substance “TrkB Y816F (mouse, trkB PLC/PLC knock-in) (from UniProt P15209 32-821) (receptor)”, the decrease in pY783 PLCγ1 immunoreactivity in hippocampal synaptic membranes, trkB^PLC/PLC against trkB^WT/WT after normal saline (Western blot) came out at 38% and the pY783 PLCγ1 immunoreactivity in hippocampal synaptic membranes after status epilepticus, trkB^WT/WT over trkB^PLC/PLC (Western blot) is 1.84 fold.
